The text below walks through data of the DeepSol protein solubility set.

A short description of the data set: soluble on expression in E. coli; label from the status in PepcDB or PDB records.
Turning to “MGSDKIHHHHHHVAETTTEQTIQKASSAIHYNAFSHNDYWRERPLLDALSFRFNCVEADLWLIDDELYVSHDRPEPNPAITFENLYLKPLVARIQANGGKVYPGSDRPFYLMVDCKAQGEEMYKLLKKQMEPYKEYFCSVDNGEYKEGAVLFFLSGDRPKNSLPKENSRFTFLDGQIKDLGQGIPASLAPVISDNYSDFFTWKGEGEMPADQLQKMREIIRKVHDEGKLFRWWGAPDTEQFKRFFIKEGVDLVGADDLNGLYNVLNER”, the “soluble on expression in E. coli” value was “not soluble”.

Take “MSLTLDELDSHLFKCADIIRDAVDPTDYKEYILPLVFYKAISDEYEQEREEIVEEYGEDFADNANLYDVPIVPEGHRWNDLRQESENVDEAINNAFTEFTQANPDLSGIFNANFMEAGGLTDDRLIKLVEHLSTYDLDRDSVPPDMLGEAYMDLVRHFAEEEGKSGGQFFTPPHIVQLCVRLVDDFADGMTFHDPTVGSGGMLTEAAKYYREAQGGDPSKLTFTGQEINPDIAAIARMNLSLHTLNGEIERGDSLASPGFTDGDDLERFDRVLANFPFSADWAKDDLQDDQYGRFDWHTKLPRADRGDYAFIMHIAEQLKEPDCGDESGGKAAIVIPHGVLFRKHEQRYRQPMLENDLVEAIVGLPENLFQNNSIPSAILVLNTDKPADREGEVQFIHAADEAFYEELSNQNELTDDGLDHIVENFDDWTTEERVSRTVGIEEIEENDFNLNIALYVDTTEPEEDIDVNEELAELRELQAEREEIESRMTEHMEALQYE”: the “soluble on expression in E. coli” value is “soluble”. For “TPLSRSERIELQSLLSARQYDAGAPDGIIGANTRKAIRSAQQSFGWPADGYPTHELLEALRKPVGQ”, the “soluble on expression in E. coli” value was “not soluble”. The same measure for “PDLSTWNLTIPQGRPAITISTSQLQRDYRSDYFQRTADGIRFWVPVNGSHTRNSEFPRSELRETLSSGRPYNWRYARADNWLEATLRIEAVPSTRRMIIGQIHSDGSNSGQAAPLVKLLYQLRLDQGRVQALVRERPDDGGTRAYTLMDGIPLGQPFSYRIGVSRSGLLSVSVNGSALEQQLDPQWAYQGLYFKAGLYLQDNRGPSSEGGRATFSELRVSHQ”: “soluble”; for “MGHHHHHHSHMKFEAFKIVPVGYIRKEKNVFIEILPEFREGMEGLREGDWIKLILWFHKSDTPELRRILKVHPHGNPENPLTGVFATRSPFRPNPYTVKVHKIEGNRIYIDWIDAEDGTPVSDIKIFPERYDCPKENYQSTSRLKS”: “soluble”; for “MELMIGRVVKSHGIRGEVAIEVTTEEPEIRFAQGEVLNGRQGGKEHSLTIASVRPHQNRLLVKFKEIADRTAADSLRGTRFFAAPLDDDVDDGFYDHELEGLAVIHGEEKIGEVSGVIHGPAQSLLEVTLESGKEVLIPFVHDIVPEVDLDAGTCVITPPEGLLEL”: “not soluble”. The value for “MFKKIATILGSTLFGTVLFAKVKEKRSYKSFLQEKMIRISGMKKTFESIDDAKKALNETKYQTAGKYNGTTYEFKHKVQIRDYYGSLVYVVNDHGLPDQRTVLYVHGGAWFQDPLENHFEYLDLLVDALDARVIMPVYPKIPHRDYRTTFELLTKIYKRLLTKIDEPENLVIIGDSAGGQIALAFAQMLKKEQLSQPGHIVLISPVLDATFKNPEARKYEKEDPMLGIDGSKYLVELWAGDAPLDDYKMSPMNGDLEGLGHITLTVGTKETLYPDAVKFSHMLNDKGIKHQFIPGYNLFHIYPLFPIPERQRFLEQLKKIIVTKEL” was “not soluble”; that for “MGHHHHHHSHMTVHIKVYSDYVCPFCFVGKAAFEEAIKGKDVEVEWMPFELRPSPSPQLDPVNDPSKQYMWQTSIQPMAEKLGVEINFPNVSPHPYTDLAFEGFHFAKEYNKGHEYNTRVFQAFFQEDQNIGDIDILTKLAEEVGLDGASFKSALETRTYQDVQRQALKHAYEEADITAVPTFIIGDTVIPGAAGKDVFEKAISDEQKKK” was “not soluble”; that for “MIDYTAAGFTLLQGAHLYAPEDRGICDVLVANGKIIAVASNIPSDIVPNCTVVDLSGQILCPGFIDQHVHLIGGGGEAGPTTRTPEVALSRLTEAGVTSVVGLLGTDSISRHPESLLAKTRALNEEGISAWMLTGAYHVPSRTITGSVEKDVAIIDRVIGVKCAISDHRSAAPDVYHLANMAAESRVGGLLGGKPGVTVFHMGDSKKALQPIYDLLENCDVPISKLLPTHVNRNVPLFEQALEFARKGGTIDITSSIDEPVAPAEGIARAVQAGIPLARVTLSSDGNGSQPFFDDEGNLTHIGVAGFETLLETVQVLVKDYDFSISDALRPLTSSVAGFLNLTGKGEILPGNDADLLVMTPELRIEQVYARGKLMVKDGKACVKGTFETA” was “soluble”. With “MSLKRTEISSLGEFGLIRHLTDCVRLKNPGTLKGIGDDAAVISFDEGMKALVTTDMLLEGIHFDLTYTPLKHLGYKSAIVNFSDIYAMNGTPRQLTVSIGVSARFSVEDIEQIYQGILTACDAYGVDLVGGDTSASLTGLCLSLTCIGEAREEEIVYRSGAKPTDLICVSGDLGAAYMGLQLLEREKAVYQGEKDFAPDFAGHEYILERQLKPEARKDIVEELRSAGIKPTAMMDISDGLSSELLHIAHAGKVGVRIYDDKLPIDYQTAAMAEEFNMNLSTAALNGGEDYELLFTVPLTRLDDIQRIEGIHLIGHITEEADGHLLVARDGTEITLVAQGWNAAKALNGEGHHHHHH”, the “soluble on expression in E. coli” value is recorded as “soluble”. The same measure for “MGSDKIHHHHHHMSAPRSICLLRLSAIGDTCNAAAVVNAIRQHYPEAEITWVIGKAEAALMAGMDGVNFVVFDKKRGMAAYRNLRRQLQGKRFDALLLMQVALRANLASLCISAKRRIGYDKAKSKELHSLFINERIEPTDKVHVLDNFRQFQKSLGIPLEEPDWNIPVNAEDRGWAKAQLDPNTSKHLIITAAASNTERNWLPDRYAAVADYAASQGFSVYLCGGPADYEKQLAANIQAHAKHSLHNLVGQSSLKQLFALIGEASLVLAPDTGPAHMAVAAGTPVIGLYAHSNPKRTGPYLWQNYVVDAYTPALKQTRGETPEQSRWGQRLKGAELMENITTEQVIDMLDRCIQEQNL”: “not soluble”; for “MDDITDGLRYRISNVIHVSPELTYDGRIMSAGKLLKLMDDLGGIICLRYLDHNSSNLYDNSFNAVVTVAVKGLAFYSPIRLNDIILIRAGLVYVGNTSADILINVVREDLNGAKEHVATAYFTYVRVDKDGKPIKIP”: “soluble”; for “MSDSIQERYLVGYALAAKKQHSFIQPSLIEHSRQRGIDLVKLDPTKSLLEQGKLDCIIHKLYDVYWKENLHEFREKCPGVPVIDLPEAIERLHNRVSMLEVITQLRFPVSDSERFGVPEQVVVMDSSVLSGGGALGELKFPVIAKPLDADGSAKSHKMFLIYDQEGMKILKAPIVLQEFVNHGGVIFKVYVVGDHVKCVKRRSLPDISEEKIGTSKGSLPFSQISNLTAQEDKNIEYGEDRSLEKVEMPPLSFLTDLAKAMRESMGLNLFNFDVIRDAKDANRYLIIDINYFPGYAKMPSYEPVLTEFFWDMVTKKNHV”: “soluble”. The same measure for “MGSDKIHHHHHHMINRKPFFIELELTYKCSQQCIYCHNPPKDLKFYIADKVPKPRSVIEMNELNLSEWISVINQIKRLDEKYEGIMDVVITGGEPLLRSDLEEILSYVTRQKLRHMLLSSGEPISDDRITKLLESGLEKIRINLTSHKYVFNIQSPIMHIKNEVAKKINIAKKFKDFGVKEVGGNIVLTSYYLDFLEEIAELAYKSNLDWIEIHSVIKVGHGYINQKFIVPDPNDERTIQEKLKRLIEIYGENFIQNYVDTDILYSRIPIPTNWGEVGLVIAPNGDIYPSSEATSIPLSKLGNIKNDSLVEIWFNNLLLNKIRSLSFLREPCKSCEVKKLCRGGFRFNAYITKNDLFAPDPSCQIVKDYIGKS”: “not soluble”; for “MDREALLERLKEPFDLLVLGGGATGAGVLWEATLRGLKAALVEAGDFASGTSSRSTKLLHGGVRYLELAFKRLDRRQLKLVVDALHERKVVMDLAPHLAKPLTLVTPLFRPLEIPYYTLGLKLYDLLAGKRRLAPSRYLPPEEVARLFPDLPKTLGGVAYQDGQFADFRLNLALVLSALERGAVALNHAEATALLLEGGRVRGAVVRDGLSGKEVEVRAKAVVNATGSLADRVRRLLDPHLPPLLTASSGVHLVLDYPLEAGLLVPKTRDGRVLFLLPYRGMALLGTTDLPAEPASCPLPREEEVAYLLEEIRPYLGDVSGRVRAVWSGLRPLVGKGETKLLVRDHYIEERRGLYTLVGGKWTTFRLMALDLVERLAKDLGLALPPSKSHATPLLGAGPRPPLPLPEEAARRLWETYGTLAPEVLALGDRPLLPGLPYLEGEVVWAVRRELARKPLDVLARRMGLAFLDQEKTREALPKVVELMAGLLGWDERERALRLKEAEEGLPGLC”: “soluble”.
